Experimental data published in the nanobody polyreactivity screen of Harvey et al. (2022).

Test: yeast display, Sf9 membrane polyspecificity reagent, FACS + sequencing; frameworks hold sequencing errors
In short: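 Genes from sorted yeast were amplified by colony PCR, read by MiSeq 2 × 250 sequencing and filtered on CDR length. These cells carried a synthetic nanobody library in Saccharomyces cerevisiae BJ5465 and were sorted by FACS into low and high (top ~1%) gates on anti-HA and streptavidin fluorescence. Polyreactivity is labelled according to the gate of origin.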

| Sequence | polyreactivity (PSR sort gate) |
| --- | --- |
| QVQLVESGGGLVQAGGSLRLSCAASGRIFAANVMGWYRQAPWKERELVAAISWNGGSTYYADSVKGRFTISRDNAKNTVYLQMNSLKPEDTAVYYCAVRGSYRGWYDYWGQGTQVTVSS | high polyreactivity |
| QVQLVESGGGLVQAGGSLRLSCAASGRIFADNAMGWYRQAPGKERELVADITYSGGSTYYADSVKGRFTISRDSAKNTVYLQMNSLKPEDTAVYYCAKQGVDYWGQGTQVTVSS | low polyreactivity |
| QVQLVESGGGLVQAGGSLRLSCAASGRIFADYAMGWYRQAPGKERELVAAISWRGGSRYYADSVKGRFTSSRDNAKNTVYLQMNSLKPEDTAVYYCNKASPADYDYWGQGTQVTVSS | low polyreactivity |
| QVQLVESGGGLVQAGGSLRLSCAASGRIFAFYAMGWYRQAPGKEREFVAAITYSGGNTNYADSVKGRFTISRDNAKNTVYLQMNSLKPEDTAVYYCAAALVYGVYYQEDYWGQGTQVTVSS | low polyreactivity |
| QVQLVESGGGLVQAGGSLRLSCAASGRIFAGYAMGWYRQAPGKERELVASIRSSGSTYYADSVKGRFTISRDNAKNTVYLQMNSLKPEDTAVYYCNKYVPYRHLWDYGYWGQGTQVTVSS | high polyreactivity |
| QVQLVESGGGLVQAGGSLRLSCAASGRIFAGYGMGWYRQAPGKERELVAAISSGGSTYYADSVKGRFTISRDNAKNTVYLQMTSLKPEDTAVYDCATDGQSVPDDYYQNVDYDYWGQGTQVAVSS | low polyreactivity |
| QVQLVESGGGLVQAGGSLRLSCAASGRIFAGYTMGWYRQAPGKERELVAAISWSGGRTYYADSVKGRFTISRDNAKYTVYLQMNSLKPEDTAVYYCNKVGWYHNYYYWGQGTQVTVSS | high polyreactivity |
| QVQLVESGGGLVQAGGSLRLSCAASGRIFAGYVMGWYRQAPGKERELVAAISGSGASTYYADSVKGRFTISRDNAKNTVFLQMNSLKPEDTAVYYCAADKPGIVSRFDYWGQGTQVTVSS | low polyreactivity |
| QVQLVESGGGLVQAGGSLRLSCAASGRIFAHYAMGWYRPAPGKERELVAAISSGGSTYYADSVKGRFTISRDNAKNTVYLQMKSLKPEDTAVYYCNKRPVRRKYDYWGQGTQVTVSS | low polyreactivity |
| QVQLVESGGGLVQAGGSLRLSCAASGRIFAKNTMGWYRQAPGKERELVAAISRSGGRTYYADSVKGRFTISRDNAKNTVYLQMNSLKPEDTAVYYCSKDVKGSYAYDSWGQGTQVTVSS | high polyreactivity |
| QVQLVESGGGLVQAGGSLRLSCAASGRIFALYTMGWYIQAPGKERELVAAITTSGGSTYADSVKGRFTISRDNAKNTVYLQMNSLKPEDTAVYYCNAQGYEGLGEFDYWGQGTQLTVSS | low polyreactivity |
| QVQLVESGGGLVQAGGSLRLSCAASGRIFANNAMGWYRQAPGKEREFVAAINYSGTSTYYADSVKGRFTISRDNAKNTVYLQMNSLKPEDTAVYYCAADLPYYPYLYDYWGQGTQVTVSS | low polyreactivity |
| QVQLVESGGGLVQAGGSLRLSCAASGRIFAPYAMGWYRQAPGKERELVAAISWRVGSTYYADSVKVRFTISRDYAKNTVYLQMNSLKPDDTAVYYCAARPSYRYDYLGQGTQVTVSS | high polyreactivity |
| QVQLVESGGGLVQAGGSLRLSCAASGRIFAQYAMGWYRQAPGKERELVAGIDRRGGSTYYADSVKGRFTISRDNAKNTVYLQMNILKPEDTAVYYCAAYGTTGVYRGPGYDYWGQGTQVTVSS | low polyreactivity |
| QVQLVESGGGLVQAGGSLRLSCAASGRIFAQYAMGWYRQAPVKERELVAGIDRRGGSTYYADSVKGRFTISRDNAKNTVYLQMNSLKPEDTAVYYCAAYGTTGVYRGPGYDYWGQATQVTVSS | low polyreactivity |
| QVQLVESGGGLVQAGGSLRLSCAASGRIFARNTMGWYRQAPGKERELVAAISWGGGRTYYADSVKGRFTISRDNAKNTVYLQMNSLKPEDTAVFYCAAETLQIPRGEYWGQGTQVTVSS | low polyreactivity |

| Sequence | polyreactivity (PSR sort gate) |
| --- | --- |
| QVQLVESGGGLVQAGGSLRLSCAASGRIFARYAMGWYRQAPGKERELVAAISRGGSTKYADSVKGRFTISRDNAKNTVYLQMNSLKPEDTAVYYCARQLWGSPYGAYYAGDYWGQGTQVTVSS | low polyreactivity |
| QVQLVESGGGLVQAGGSLRLSCAASGRIFARYAMGWYRQAPGKERELVAAITKSVGSTYYADSVKGRFTNSRDNAKNTVYLQMNSLKPEDTAVYYCNAVARGYGYDYWGQGTQVTVSS | high polyreactivity |
| QVQLVESGGGLVQAGGSLRLSCAASGRIFARYAMGWYRQAPWKERELVADITTGGSTDYADSVKGRFTISRDNAKNTVYLQMNSLKPEDTAVYYCAKDHHPPGKGQSVSLGYDYWGQGTQVTVSS | low polyreactivity |
| QVQLVESGGGLVQAGGSLRLSCAASGRIFARYAMRMYRQAPEKERELVDYINSGDNTYYADSVKWRFTISRDNAKNTVYLQMNSLKPDATAVYYCAAVVGRRQSSSSRFEYDYWGQGTQVTVSS | low polyreactivity |
| QVQLVESGGGLVQAGGSLRLSCAASGRIFASNAMGWYRQAPGKERELVAAIDQGGGSSYYADSVKGRFTISRDNAKNTVYLLMNSLKPEDTAVYYCAADYITAYPRLYNYWGQGTQVTVSS | low polyreactivity |
| QVQLVESGGGLVQAGGSLRLSCAASGRIFAVNAMGWYRQAPGKERELVAAISWSGGITRYADSVKGRFTISRDNAKNTVYLQMNSLKPEDTAVYYCNASQWPSRFDYWGQGTQVTVSS | low polyreactivity |
| QVQLVESGGGLVQAGGSLRLSCAASGRIFAVYAMGWYRQAPGKEREFVAAISYSGGITYYADSVKGRFTISRDNAKNTVYLQMNSLKPEDTAVYYCNAYYYFWGQGTQVTVSS | low polyreactivity |
| QVQLVESGGGLVQAGGSLRLSCAASGRIFAVYAMGWYRQAPGKERELVAAINNGASTNYADSVKGRFTISRDNAKNTVYLQMNSLKPEDTAVYYCAAYGYWGQGTQVTVSS | high polyreactivity |
| QVQLVESGGGLVQAGGSLRLSCAASGRIFAVYAMGWYRQAPGKERELVAAIRWSGVRTYYADSVKGRFTISRDNAKNTVYLQMNSLKPEDTAVYYCAAEYSGQYYSPVSFLYDYWGQGTQVTVSS | high polyreactivity |
| QVQLVESGGGLVQAGGSLRLSCAASGRIFAWNAMGCYRQAPGKERELVAGISGSGGSTYYADSVKGRFTISRDNAKNTVYFQMNSLKPEDTAVYYCAARRRYDGWGGYWGQGTQVTVSS | high polyreactivity |
| QVQLVESGGGLVQAGGSLRLSCAASGRIFAWNAMGWYRQAPGTERELVARIRVSGGRTYYADSVKGRFTISRDNAKNTVYLQMNSLKPEDTAVDYCNAYLRSGSMDYWGQGTQVTVSS | high polyreactivity |
| QVQLVESGGGLVQAGGSLRLSCAASGRIFAWYAMGWYRQAPGKERELVAAISDSGRSTYYADSVKGRFTISRDNAKNTVYLQMNSLKPEDNAVYYCAADQVVYSAYWCDHYDYWGQGTQVTVSS | low polyreactivity |
| QVQLVESGGGLVQAGGSLRLSCAASGRIFAYNAMGWSRQAPGKERELVAAITWSGGTTYYADSVKGRFTISRDNAKNTVYLQMNSLKPEDTAVYYCAASRRYGGYRFDYWGQGTQVTVSS | high polyreactivity |
| QVQLVESGGGLVQAGGSLRLSCAASGRIFAYNAMGWYRQAPGKERELVAAISSSDDDTYYADSVKGRFTISRDNAKNTVYLQMNSLKPEDTAAYYCAAEWDTDRLWAGPRGSLYDYWGQGTQVTVSS | high polyreactivity |
| QVQLVESGGGLVQAGGSLRLSCAASGRIFAYNARGWYRQAPGKERELVADISSGGNTYYADSVKGRFTISRDNAKNTVYLQMNSLKPEDTAVYYCAADIAWYTHYHRIFDYWGQGTQVTVSS | low polyreactivity |
| QVQLVESGGGLVQAGGSLRLSCAASGRIFAYNTMGWYRQAPGKERELVAVITSGGSTNYADSVKGRFTISRDNAKNTVYLQMNSLKPEDTAVYYCNADPRLRQTRDYWGQGTQVTVSS | high polyreactivity |
